Reference: patent US20140186363A1 (UNIVERSITY OF ZURICH, published 2014)

Columns and labels:
MAGEA3 = target: T1, MAGEA3 (human, UniProt P43357 1-314); assay: ELISA, plate coated with recombinant MAGEA3, serial dilution of antibody
T1 construct: also called recombinant MAGEA3; MAGEA3-protein

MAGEA3 peptide no 7 = target: T2, MAGEA3 peptide no 7; assay: ELISA on plate-coated 20mer peptide, antibody at 1 µg/ml, anti-human IgG Fc-HRP
T2 construct: also called MAGEA3 aa 61-80
T2 peptide: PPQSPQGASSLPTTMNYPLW
Description: (§1) 20mer peptides spanning the entire MAGEA3 protein with 10 aa overlaps shared by each adjacent peptide (Peptides&Elephants, Nuthetal, Germany) were used to coat Maxisorp ELISA plates (Nunc, Rochester, N.Y.). As control a 20mer peptide representing amino acids 40-21 from the NY-ESO-1 protein was used (rev). The numbering of amino acids of MAGEA3 is based on SEQ ID No:41.
(§2) Human recombinant antibody was used at a concentration of 1 μg/ml. Bound human antibody was detected using horseradish peroxidase-conjugated goat anti-human IgG Fc-gamma specific antibodies (Jackson ImmunoResearch, Europe Ltd., Cambridgeshire, UK).

MAGEA3 peptide no 24 = target: T3, MAGEA3 peptide no 24; assay: as above
T3 construct: also called MAGEA3 aa 231-250
T3 peptide: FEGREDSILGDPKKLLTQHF
Description: as §1, §2

MAGEA3 peptide no 8 = target: T4, MAGEA3 peptide no 8; assay: as above
T4 construct: also called MAGEA3 aa 71-90
T4 peptide: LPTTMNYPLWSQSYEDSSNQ
Description: as §1, §2

MAGEA3 peptide no 20 = target: T5, MAGEA3 peptide no 20; assay: peptide ELISA (coated 20mer)
T5 construct: also called MAGEA3 aa 191-210
T5 peptide: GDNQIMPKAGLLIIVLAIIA
Description: as §1, §2

MAGEA3 peptide no 12 = target: T6, MAGEA3 peptide no 12; assay: peptide ELISA (coated 20mer)
T6 construct: also called MAGEA3 aa 111-130
T6 peptide: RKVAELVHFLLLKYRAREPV
Description: as §1, §2

MAGEA3 peptide no 19 = target: T7, MAGEA3 peptide no 19; assay: peptide ELISA (coated 20mer)
T7 construct: also called MAGEA3 aa 181-200
T7 peptide: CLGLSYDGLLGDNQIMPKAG
Description: as §1, §2

MAGEA3 peptide no 10 = target: T8, MAGEA3 peptide no 10; assay: peptide ELISA (coated 20mer)
T8 construct: also called MAGEA3 aa 91-110
T8 peptide: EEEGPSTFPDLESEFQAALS
Description: as §1, §2

MAGEA3 peptide no 5 = target: T9, MAGEA3 peptide no 5; assay: peptide ELISA (coated 20mer)
T9 construct: also called MAGEA3 aa 41-60
T9 peptide: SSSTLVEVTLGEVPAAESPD
Description: as §1, §2

MAGEA3 peptide no 9 = target: T10, MAGEA3 peptide no 9; assay: peptide ELISA (coated 20mer)
T10 construct: also called MAGEA3 aa 81-100
T10 peptide: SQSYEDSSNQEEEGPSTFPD
Description: as §1, §2

MAGEA3 peptide no 15 = target: T11, MAGEA3 peptide no 15; assay: peptide ELISA (coated 20mer)
T11 construct: also called MAGEA3 aa 141-160
T11 peptide: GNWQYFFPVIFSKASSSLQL
Description: as §1, §2

MAGEA3 peptide no 29 = target: T12, MAGEA3 peptide no 29; assay: peptide ELISA (coated 20mer)
T12 construct: also called MAGEA3 aa 281-300
T12 peptide: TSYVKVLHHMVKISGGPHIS
Description: as §1, §2

MAGEA3 peptide no 25 = target: T13, MAGEA3 peptide no 25; assay: peptide ELISA (coated 20mer)
T13 construct: also called MAGEA3 aa 241-260
T13 peptide: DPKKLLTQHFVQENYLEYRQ
Description: as §1, §2

MAGEA3 peptide no 6 = target: T14, MAGEA3 peptide no 6; assay: peptide ELISA (coated 20mer)
T14 construct: also called MAGEA3 aa 51-70
T14 peptide: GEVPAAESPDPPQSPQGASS
Description: as §1, §2

MAGEA3 peptide no 14 = target: T15, MAGEA3 peptide no 14; assay: peptide ELISA (coated 20mer)
T15 construct: also called MAGEA3 aa 131-150
T15 peptide: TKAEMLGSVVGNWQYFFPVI
Description: as §1, §2

MAGEA3 peptide no 17 = target: T16, MAGEA3 peptide no 17; assay: peptide ELISA (coated 20mer)
T16 construct: also called MAGEA3 aa 161-180
T16 peptide: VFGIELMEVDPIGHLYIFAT
Description: as §1, §2

MAGEA3 peptide no 13 = target: T17, MAGEA3 peptide no 13; assay: peptide ELISA (coated 20mer)
T17 construct: also called MAGEA3 aa 121-140
T17 peptide: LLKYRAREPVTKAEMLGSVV
Description: as §1, §2

MAGEA3 peptide no 30 = target: T18, MAGEA3 peptide no 30; assay: peptide ELISA (coated 20mer)
T18 construct: also called MAGEA3 aa 291-310
T18 peptide: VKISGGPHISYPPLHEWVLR
Description: as §1, §2

MAGEA3 peptide no 21 = target: T19, MAGEA3 peptide no 21; assay: peptide ELISA (coated 20mer)
T19 construct: also called MAGEA3 aa 201-220
T19 peptide: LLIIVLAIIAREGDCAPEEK
Description: as §1, §2

MAGEA3 peptide no 2 = target: T20, MAGEA3 peptide no 2; assay: peptide ELISA (coated 20mer)
T20 construct: also called MAGEA3 aa 11-30
T20 peptide: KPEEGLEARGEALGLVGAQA
Description: as §1, §2

MAGEA3 peptide no 11 = target: T21, MAGEA3 peptide no 11; assay: peptide ELISA (coated 20mer)
T21 construct: also called MAGEA3 aa 101-120
T21 peptide: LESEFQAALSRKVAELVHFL
Description: as §1, §2

MAGEA3 peptide no 3 = target: T22, MAGEA3 peptide no 3; assay: peptide ELISA (coated 20mer)
T22 construct: also called MAGEA3 aa 21-40
T22 peptide: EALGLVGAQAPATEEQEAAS
Description: as §1, §2

MAGEA3 peptide no 26 = target: T23, MAGEA3 peptide no 26; assay: peptide ELISA (coated 20mer)
T23 construct: also called MAGEA3 aa 251-270
T23 peptide: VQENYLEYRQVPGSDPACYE
Description: as §1, §2

MAGEA3 peptide no 22 = target: T24, MAGEA3 peptide no 22; assay: peptide ELISA (coated 20mer)
T24 construct: also called MAGEA3 aa 211-230
T24 peptide: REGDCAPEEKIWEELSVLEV
Description: as §1, §2

MAGEA3 peptide no 27 = target: T25, MAGEA3 peptide no 27; assay: peptide ELISA (coated 20mer)
T25 construct: also called MAGEA3 aa 261-280
T25 peptide: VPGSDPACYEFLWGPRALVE
Description: as §1, §2

MAGEA3 peptide no 1 = target: T26, MAGEA3 peptide no 1; assay: peptide ELISA (coated 20mer)
T26 construct: also called MAGEA3 aa 1-20
T26 peptide: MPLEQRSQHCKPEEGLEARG
Description: as §1, §2

MAGEA3 peptide no 18 = target: T27, MAGEA3 peptide no 18; assay: peptide ELISA (coated 20mer)
T27 construct: also called MAGEA3 aa 171-190
T27 peptide: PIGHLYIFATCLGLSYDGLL
Description: as §1, §2

MAGEA3 peptide no 28 = target: T28, MAGEA3 peptide no 28; assay: peptide ELISA (coated 20mer)
T28 construct: also called MAGEA3 aa 271-290
T28 peptide: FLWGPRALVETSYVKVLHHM
Description: as §1, §2

MAGEA4 = target: T29, MAGEA4 (UniProt P43358 1-317, limits assumed); assay: Western blot of recombinant protein, anti-human IgG-HRP
T29 construct: also called recombinant MAGEA4-protein; CT1.4
T29 sequence (looked up): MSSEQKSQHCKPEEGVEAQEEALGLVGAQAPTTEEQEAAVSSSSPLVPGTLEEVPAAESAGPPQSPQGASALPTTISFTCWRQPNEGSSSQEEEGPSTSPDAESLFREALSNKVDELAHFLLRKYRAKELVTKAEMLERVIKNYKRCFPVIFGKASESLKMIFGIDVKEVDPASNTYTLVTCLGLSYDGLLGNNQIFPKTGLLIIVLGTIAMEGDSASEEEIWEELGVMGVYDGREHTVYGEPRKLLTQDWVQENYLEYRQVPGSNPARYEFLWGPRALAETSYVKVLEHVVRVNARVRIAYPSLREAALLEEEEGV
Description: Recombinant MAGEA3- and recombinant MAGEA4-protein were separated in SDS-PAGE and blotted onto membranes. Membranes were incubated with human antibodies 122G3 or 32H2. Binding of human antibodies to proteins on the membrane was evaluated using an HRP-labeled goat anti human IgG (Jackson Immunoresearch, Milan Analytica AG, Rheinfelden, Switzerland). The results are depicted in FIG. 3.

B1: 122G3 (antibody, V domains shown)
VH: QVQLVQSGAEVKKPGASVKVSCKASGYTFTNYAIHWVRQAPGQRLEWMGWINAGKGNTKYSQKFQGRVTITRDTSADTTYMELSSLRSEDTAVYFCAQAGLSSGLYRDYWGQGTPVTVSS
VL: EIVMTQSPATLSVSPGERATLSCRASQSVSSDLAWYQQKRGQAPRLLIYGASTRATGIPARFSGSGSGTEFTLTISSLQSEDFAVYWCQQYNDWPLTFGGGTKVEIN
notes: Patient-derived human antibody made recombinantly; also called human monoclonal antibody 122G3
~20 pM: EC50 (read off the curve) (MAGEA3)
0.023 nM: EC50 (MAGEA3)
binds: binding result (MAGEA3 peptide no 7) | binding result (MAGEA3 peptide no 24) | binding result (MAGEA3 peptide no 8)
no binding (tested: 1 µg/ml): binding result (MAGEA3 peptide no 20) | binding result (MAGEA3 peptide no 12) | binding result (MAGEA3 peptide no 19) | binding result (MAGEA3 peptide no 10) | binding result (MAGEA3 peptide no 5) | binding result (MAGEA3 peptide no 9) | binding result (MAGEA3 peptide no 15) | binding result (MAGEA3 peptide no 29) | binding result (MAGEA3 peptide no 25) | binding result (MAGEA3 peptide no 6) | binding result (MAGEA3 peptide no 14) | binding result (MAGEA3 peptide no 17) | binding result (MAGEA3 peptide no 13) | binding result (MAGEA3 peptide no 30) | binding result (MAGEA3 peptide no 21) | binding result (MAGEA3 peptide no 2) | binding result (MAGEA3 peptide no 11) | binding result (MAGEA3 peptide no 3) | binding result (MAGEA3 peptide no 26) | binding result (MAGEA3 peptide no 22) | binding result (MAGEA3 peptide no 27) | binding result (MAGEA3 peptide no 1) | binding result (MAGEA3 peptide no 18) | binding result (MAGEA3 peptide no 28)
no binding: binding result (MAGEA4)
